In EP4537907A1:

How the values were obtained:
[1] = biological target: ADRB1 on human lung fibroblasts (human) (UniProt P08588); test: LRC-TriCEPS ligand-receptor capture on living human lung fibroblasts (n=3 donors), LC-MS/MS enrichment; reference ligand BSA
[2] = biological target: ADT3 in human lung fibroblasts (human) (UniProt P12236); test: as above
[3] = biological target: CAVN1 in human lung fibroblasts (human) (UniProt Q6NZI2); test: as above
[4] = biological target: CD248 on human lung fibroblasts (human) (UniProt Q9HCU0); test: as above
[5] = biological target: CD44 on human lung fibroblasts (human) (UniProt P16070); test: as above
[6] = biological target: CSPG4 on human lung fibroblasts (human) (UniProt Q6UVK1); test: as above
[7] = biological target: GPC1 on human lung fibroblasts (human) (UniProt P35052); test: as above
[8] = biological target: NRP1 on human lung fibroblasts (human) (UniProt O14786); test: as above
[9] = biological target: RECK on human lung fibroblasts (human) (UniProt O95980); test: as above
[10] = biological target: SNX18 in human lung fibroblasts (human) (UniProt Q96RF0); test: as above
[11] = biological target: ADRB1 on human lung fibroblasts (human) (UniProt P08588); test: LRC-TriCEPS ligand-receptor capture on living human lung fibroblasts (n=3 donors), LC-MS/MS enrichment; reference ligand transferrin (TRFE)
[12] = biological target: ADT3 in human lung fibroblasts (human) (UniProt P12236); test: as above
[13] = biological target: CAVN1 in human lung fibroblasts (human) (UniProt Q6NZI2); test: as above
[14] = biological target: CD248 on human lung fibroblasts (human) (UniProt Q9HCU0); test: as above
[15] = biological target: CD44 on human lung fibroblasts (human) (UniProt P16070); test: as above
[16] = biological target: CSPG4 on human lung fibroblasts (human) (UniProt Q6UVK1); test: as above
[17] = biological target: GPC1 on human lung fibroblasts (human) (UniProt P35052); test: as above
[18] = biological target: NRP1 on human lung fibroblasts (human) (UniProt O14786); test: as above
[19] = biological target: RECK on human lung fibroblasts (human) (UniProt O95980); test: as above
[20] = biological target: SNX18 in human lung fibroblasts (human) (UniProt Q96RF0); test: as above

CSPG4 on human lung fibroblasts (human), sequence (Q6UVK1 30-2322): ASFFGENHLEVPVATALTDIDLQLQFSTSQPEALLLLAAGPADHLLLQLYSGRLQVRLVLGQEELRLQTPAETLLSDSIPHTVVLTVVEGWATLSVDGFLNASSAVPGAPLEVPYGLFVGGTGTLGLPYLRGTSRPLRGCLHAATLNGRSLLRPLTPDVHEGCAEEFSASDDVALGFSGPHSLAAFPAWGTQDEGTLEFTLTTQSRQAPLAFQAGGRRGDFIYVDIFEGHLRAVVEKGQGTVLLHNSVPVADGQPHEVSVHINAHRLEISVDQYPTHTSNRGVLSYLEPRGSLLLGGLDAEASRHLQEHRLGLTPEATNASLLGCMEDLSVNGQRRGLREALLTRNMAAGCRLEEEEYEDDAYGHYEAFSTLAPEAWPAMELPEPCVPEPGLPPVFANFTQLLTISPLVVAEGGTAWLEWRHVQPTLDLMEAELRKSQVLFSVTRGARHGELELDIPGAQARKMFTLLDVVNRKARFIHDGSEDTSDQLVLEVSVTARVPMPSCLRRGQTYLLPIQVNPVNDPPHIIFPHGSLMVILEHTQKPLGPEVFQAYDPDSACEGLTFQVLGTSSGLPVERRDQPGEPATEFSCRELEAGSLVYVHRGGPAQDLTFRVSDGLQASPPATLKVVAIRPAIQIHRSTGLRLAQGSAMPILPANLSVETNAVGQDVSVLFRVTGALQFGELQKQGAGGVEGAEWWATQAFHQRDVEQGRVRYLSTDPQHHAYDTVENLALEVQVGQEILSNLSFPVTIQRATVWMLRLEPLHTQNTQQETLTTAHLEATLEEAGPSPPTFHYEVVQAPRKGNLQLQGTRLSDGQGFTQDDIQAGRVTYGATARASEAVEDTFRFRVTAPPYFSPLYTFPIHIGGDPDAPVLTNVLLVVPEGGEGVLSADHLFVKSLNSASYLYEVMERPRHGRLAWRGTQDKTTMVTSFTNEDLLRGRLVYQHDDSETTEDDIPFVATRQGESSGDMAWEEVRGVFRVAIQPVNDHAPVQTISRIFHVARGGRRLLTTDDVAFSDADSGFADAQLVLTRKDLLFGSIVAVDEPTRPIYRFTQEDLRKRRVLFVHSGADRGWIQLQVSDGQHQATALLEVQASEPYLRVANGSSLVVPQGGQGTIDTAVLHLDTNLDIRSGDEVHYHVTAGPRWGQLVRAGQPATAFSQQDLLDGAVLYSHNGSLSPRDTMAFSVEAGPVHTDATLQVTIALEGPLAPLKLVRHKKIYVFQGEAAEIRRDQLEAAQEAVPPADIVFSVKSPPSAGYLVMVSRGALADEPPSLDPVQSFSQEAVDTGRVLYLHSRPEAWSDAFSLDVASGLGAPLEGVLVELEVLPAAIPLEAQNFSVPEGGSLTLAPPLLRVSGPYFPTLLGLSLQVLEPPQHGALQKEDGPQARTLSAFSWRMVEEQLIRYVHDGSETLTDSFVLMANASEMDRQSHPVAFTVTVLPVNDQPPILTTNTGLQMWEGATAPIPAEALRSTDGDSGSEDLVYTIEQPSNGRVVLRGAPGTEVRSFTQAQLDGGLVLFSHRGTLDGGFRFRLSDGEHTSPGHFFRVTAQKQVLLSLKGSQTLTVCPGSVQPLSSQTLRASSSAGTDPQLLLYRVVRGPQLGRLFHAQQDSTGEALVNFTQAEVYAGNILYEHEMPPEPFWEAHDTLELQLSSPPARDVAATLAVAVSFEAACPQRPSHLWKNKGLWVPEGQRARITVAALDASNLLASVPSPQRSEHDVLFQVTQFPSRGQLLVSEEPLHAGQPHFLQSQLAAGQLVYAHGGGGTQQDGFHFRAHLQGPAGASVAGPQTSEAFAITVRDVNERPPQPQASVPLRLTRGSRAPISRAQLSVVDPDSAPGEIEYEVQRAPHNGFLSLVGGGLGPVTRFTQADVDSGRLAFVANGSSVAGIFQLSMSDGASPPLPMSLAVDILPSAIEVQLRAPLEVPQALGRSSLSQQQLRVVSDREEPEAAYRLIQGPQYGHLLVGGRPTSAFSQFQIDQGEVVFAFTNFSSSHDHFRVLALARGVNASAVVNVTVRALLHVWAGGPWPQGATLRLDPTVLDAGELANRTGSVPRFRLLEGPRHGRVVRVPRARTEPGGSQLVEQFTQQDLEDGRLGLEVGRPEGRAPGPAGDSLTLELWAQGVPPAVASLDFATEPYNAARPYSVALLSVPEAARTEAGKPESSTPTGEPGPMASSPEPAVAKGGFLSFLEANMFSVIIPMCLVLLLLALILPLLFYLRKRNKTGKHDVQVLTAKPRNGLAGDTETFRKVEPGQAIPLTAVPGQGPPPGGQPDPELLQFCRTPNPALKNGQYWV
SNX18 in human lung fibroblasts (human), sequence (Q96RF0 whole entry): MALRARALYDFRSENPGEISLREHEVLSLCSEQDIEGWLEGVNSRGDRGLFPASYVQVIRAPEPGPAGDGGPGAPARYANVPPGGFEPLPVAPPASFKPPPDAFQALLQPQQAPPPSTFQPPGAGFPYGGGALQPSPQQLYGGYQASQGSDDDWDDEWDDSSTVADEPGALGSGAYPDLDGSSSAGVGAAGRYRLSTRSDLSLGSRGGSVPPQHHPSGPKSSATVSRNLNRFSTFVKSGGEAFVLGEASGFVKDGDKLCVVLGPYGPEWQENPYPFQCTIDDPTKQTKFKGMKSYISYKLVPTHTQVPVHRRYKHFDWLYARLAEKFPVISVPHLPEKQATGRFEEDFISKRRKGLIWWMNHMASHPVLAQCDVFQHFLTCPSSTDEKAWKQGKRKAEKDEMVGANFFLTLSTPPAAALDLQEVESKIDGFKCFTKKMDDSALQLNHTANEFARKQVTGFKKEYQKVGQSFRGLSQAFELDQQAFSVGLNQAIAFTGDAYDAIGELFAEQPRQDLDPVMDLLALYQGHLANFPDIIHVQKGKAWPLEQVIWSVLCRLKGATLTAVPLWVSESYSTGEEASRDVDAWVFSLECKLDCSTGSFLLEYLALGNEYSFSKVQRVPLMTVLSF
CD248 on human lung fibroblasts (human), sequence (Q9HCU0 18-757): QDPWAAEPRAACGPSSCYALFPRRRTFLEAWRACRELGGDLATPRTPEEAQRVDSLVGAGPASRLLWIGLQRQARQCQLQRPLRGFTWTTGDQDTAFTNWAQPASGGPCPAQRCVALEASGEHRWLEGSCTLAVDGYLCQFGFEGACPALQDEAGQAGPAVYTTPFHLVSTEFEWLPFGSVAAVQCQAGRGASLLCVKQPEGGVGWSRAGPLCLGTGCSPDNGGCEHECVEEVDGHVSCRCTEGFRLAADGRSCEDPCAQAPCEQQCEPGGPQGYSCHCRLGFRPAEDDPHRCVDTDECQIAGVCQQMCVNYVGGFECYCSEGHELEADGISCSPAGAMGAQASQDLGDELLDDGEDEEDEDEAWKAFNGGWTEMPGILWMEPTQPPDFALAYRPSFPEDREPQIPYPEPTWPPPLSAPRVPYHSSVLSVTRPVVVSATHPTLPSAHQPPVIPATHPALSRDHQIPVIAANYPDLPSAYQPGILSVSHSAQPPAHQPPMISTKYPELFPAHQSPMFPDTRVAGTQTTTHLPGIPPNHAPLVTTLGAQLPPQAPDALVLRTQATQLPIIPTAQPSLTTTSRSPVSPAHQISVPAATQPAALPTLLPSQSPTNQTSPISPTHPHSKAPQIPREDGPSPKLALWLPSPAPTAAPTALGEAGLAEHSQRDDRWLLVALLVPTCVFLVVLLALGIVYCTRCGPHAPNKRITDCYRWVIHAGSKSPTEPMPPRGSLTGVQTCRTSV
NRP1 on human lung fibroblasts (human), sequence (O14786 22-923): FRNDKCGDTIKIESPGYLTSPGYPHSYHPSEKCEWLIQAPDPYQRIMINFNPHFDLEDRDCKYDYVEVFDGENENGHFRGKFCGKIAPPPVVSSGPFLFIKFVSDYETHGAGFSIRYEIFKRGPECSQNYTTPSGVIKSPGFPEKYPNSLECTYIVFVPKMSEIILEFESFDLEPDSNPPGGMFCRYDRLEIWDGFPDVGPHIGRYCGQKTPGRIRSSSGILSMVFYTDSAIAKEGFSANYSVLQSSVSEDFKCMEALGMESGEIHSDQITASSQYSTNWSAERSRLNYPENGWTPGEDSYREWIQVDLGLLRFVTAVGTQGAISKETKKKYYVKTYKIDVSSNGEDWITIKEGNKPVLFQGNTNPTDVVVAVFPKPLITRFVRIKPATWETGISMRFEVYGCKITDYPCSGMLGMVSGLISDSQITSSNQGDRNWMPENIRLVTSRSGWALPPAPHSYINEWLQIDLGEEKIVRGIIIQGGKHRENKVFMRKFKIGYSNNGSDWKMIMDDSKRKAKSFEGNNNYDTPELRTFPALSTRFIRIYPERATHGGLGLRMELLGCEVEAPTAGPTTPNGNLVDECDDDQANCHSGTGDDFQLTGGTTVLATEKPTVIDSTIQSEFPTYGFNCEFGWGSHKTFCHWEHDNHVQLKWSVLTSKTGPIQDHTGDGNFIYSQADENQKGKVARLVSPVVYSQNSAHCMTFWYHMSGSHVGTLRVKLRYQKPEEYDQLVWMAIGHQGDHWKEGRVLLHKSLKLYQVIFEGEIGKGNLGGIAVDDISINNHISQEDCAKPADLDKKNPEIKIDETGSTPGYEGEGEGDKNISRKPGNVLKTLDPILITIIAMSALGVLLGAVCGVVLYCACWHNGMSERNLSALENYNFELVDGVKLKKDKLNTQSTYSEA
GPC1 on human lung fibroblasts (human), sequence (P35052 24-530): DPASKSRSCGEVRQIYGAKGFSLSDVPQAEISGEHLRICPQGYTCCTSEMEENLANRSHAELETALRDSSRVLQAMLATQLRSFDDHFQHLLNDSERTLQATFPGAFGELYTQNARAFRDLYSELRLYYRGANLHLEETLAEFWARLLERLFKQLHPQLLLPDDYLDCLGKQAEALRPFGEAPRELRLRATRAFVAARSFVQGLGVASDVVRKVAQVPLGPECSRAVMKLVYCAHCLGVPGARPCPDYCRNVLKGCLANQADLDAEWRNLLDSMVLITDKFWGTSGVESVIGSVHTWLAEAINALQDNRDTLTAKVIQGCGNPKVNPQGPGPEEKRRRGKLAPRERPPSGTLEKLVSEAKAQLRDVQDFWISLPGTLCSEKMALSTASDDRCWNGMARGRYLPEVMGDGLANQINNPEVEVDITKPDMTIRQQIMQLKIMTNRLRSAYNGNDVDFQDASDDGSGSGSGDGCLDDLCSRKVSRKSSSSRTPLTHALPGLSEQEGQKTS

log2(FC) IGFBP5 vs BSA (log2 fold change) [1]: -4.9 | log2(FC) IGFBP5 vs BSA (log2 fold change) [2]: -1.6 | log2(FC) IGFBP5 vs BSA (log2 fold change) [3]: -1.5 | log2(FC) IGFBP5 vs BSA (log2 fold change) [4]: -2.2 | log2(FC) IGFBP5 vs BSA (log2 fold change) [5]: -0.8 | log2(FC) IGFBP5 vs BSA (log2 fold change) [6]: -2.2 | log2(FC) IGFBP5 vs BSA (log2 fold change) [7]: -5.9 | log2(FC) IGFBP5 vs BSA (log2 fold change) [8]: -3.8 | log2(FC) IGFBP5 vs BSA (log2 fold change) [9]: -4.3 | log2(FC) IGFBP5 vs BSA (log2 fold change) [10]: -2.5 | log2(FC) IGFBP5 vs TRFE (log2 fold change) [11]: -4.1 | log2(FC) IGFBP5 vs TRFE (log2 fold change) [12]: -1 | log2(FC) IGFBP5 vs TRFE (log2 fold change) [13]: -1 | log2(FC) IGFBP5 vs TRFE (log2 fold change) [14]: -1.8 | log2(FC) IGFBP5 vs TRFE (log2 fold change) [15]: -0.6 | log2(FC) IGFBP5 vs TRFE (log2 fold change) [16]: -2.3 | log2(FC) IGFBP5 vs TRFE (log2 fold change) [17]: -5.5 | log2(FC) IGFBP5 vs TRFE (log2 fold change) [18]: -3.7 | log2(FC) IGFBP5 vs TRFE (log2 fold change) [19]: -2.3 | log2(FC) IGFBP5 vs TRFE (log2 fold change) [20]: -1.7
Substance: recombinant human IGFBP5 (from UniProt P24593 21-272) (ligand)
